Source: patent US20230303715A1

Assays:
Experiment in all cases: SPR Biacore, Ab on HER2 chip
FcγRI = FcγRI (UniProt P12314)
FcγRIIaH = FcγRIIaH (UniProt P12318)
FcγRIIaR = FcγRIIaR (UniProt P12318)
FcγRIIb = FcγRIIb (UniProt P31994)
Sequence of FcγRIIb (P31994 43-217 limits assumed): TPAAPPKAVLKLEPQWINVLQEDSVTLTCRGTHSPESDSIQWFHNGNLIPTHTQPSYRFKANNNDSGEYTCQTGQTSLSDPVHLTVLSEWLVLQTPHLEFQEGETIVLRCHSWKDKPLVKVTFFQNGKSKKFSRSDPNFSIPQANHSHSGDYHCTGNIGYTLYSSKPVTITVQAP

Sequence of FcγRIIaR (P12318 34-217 H167R limits assumed): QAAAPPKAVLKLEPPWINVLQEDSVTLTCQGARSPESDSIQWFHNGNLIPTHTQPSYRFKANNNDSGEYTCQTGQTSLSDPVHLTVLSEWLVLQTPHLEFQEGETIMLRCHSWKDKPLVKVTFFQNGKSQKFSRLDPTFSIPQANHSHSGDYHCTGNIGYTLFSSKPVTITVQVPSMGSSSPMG
Sequence of FcγRIIaH (P12318 34-217 limits assumed): as the sequence (P12318 34-217 H167R limits assumed) above, with R134H counted along it
Sequence of FcγRI (P12314 16-292 limits assumed): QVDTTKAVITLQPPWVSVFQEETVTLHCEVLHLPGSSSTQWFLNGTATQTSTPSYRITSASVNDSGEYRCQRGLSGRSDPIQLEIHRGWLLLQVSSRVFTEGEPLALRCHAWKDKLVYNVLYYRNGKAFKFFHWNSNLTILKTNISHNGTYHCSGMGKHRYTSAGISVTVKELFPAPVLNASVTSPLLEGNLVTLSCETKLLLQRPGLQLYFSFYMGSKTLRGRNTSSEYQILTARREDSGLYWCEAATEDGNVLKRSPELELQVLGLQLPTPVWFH

- Kd (FcγRI): 0.532 nM
- Kd (FcγRIIaH): 575 nM
- Kd (FcγRIIaR): 61.4 nM
- Kd (FcγRIIb): 15.5 nM
B1: one-armed trastuzumab antibody, Scaffold 9, variant v27319 (L242C_I336C/V308I) (antibody, part only; not given: Trastuzumab Fab arm, not shown: another chain or arm of the molecule)
Fc 1: APEFLNGPSVFCFPPKPKDTLMISRTPEVTCVVVDVSQEDPEVKFNWYVDGVEVHNAKTKPREEQYNSTYRVVSVLTILHQDWLNGKEYKCKVSNKGLPKSIEKTCSKAKGQPREPQVYVYPPSRDELTKNQVSLTCLVKGFYPSDIAVEWESNGQPENNYKTTPPVLDSDGSFALVSKLTVDKSRWQQGNVFSCSVMHEALHNHYTQKSLSLSPGK
Fc 2: APELLDGPDVFCFPPKPKDTLMISRTPEVTCVVVDLADEDPEVKFNWYVDGVEVHNAKTKPREEQYNSTYRVVSVLTILHQDWLNGKEYKCKVSNKALPAPIEKTCSKAKGQPREPQVYVLPPSRDELTKNQVSLLCLVKGFYPSDIAVEWESNGQPENNYLTWPPVLDSDGSFFLYSKLTVDKSRWQQGNVFSCSVMHEALHNHYTQKSLSLSPGK
modifications: Engineered intrachain disulphide C242-C336 in each Fc chain.
